Assays:
PB1m6A9 (free peptide) = test: SPR; value cited from earlier paper
PB1m7 (free peptide) = test: SPR; value cited from earlier paper
[1] = molecular target: T1, Fc proteins lasso-grafted with PlxnB1-binding peptides (SPR, Fig. 1c); test: SPR; PB1m6A9 grafted on Fc; divalent, not true 1:1 affinity
[2] = molecular target: T1, Fc proteins lasso-grafted with …; test: SPR; PB1m7 grafted on Fc; divalent, not true 1:1 affinity
[3] = molecular target: UG2 fusion of the PlxnB1-binding peptide PB1m7 (human); test: SPR
[4] = molecular target: UG2-m6, single-chain tandem uteroglobin dimer with the PB1m6 peptide fused between two UG monomers (human, UniProt P11684); test: SPR
[5] = molecular target: UG2-m6A9, single-chain tandem uteroglobin dimer grafted with the affinity-matured m6A9 peptide (human, UniProt P11684); test: SPR
[6] = molecular target: Fc proteins lasso-grafted with MET-binding peptides (SPR, Fig. 1c); test: SPR; aMD4 grafted on Fc; divalent, not true 1:1 affinity
aMD5 (free peptide) = test: SPR; value cited from earlier paper
aMD4 (free peptide) = test: SPR; value cited from earlier paper
[7] = molecular target: UG2 fusion of the MET-binding peptide aMD4 (human); test: SPR
[8] = molecular target: UG2 fusion of the MET-binding peptide aMD5 (human); test: SPR

B1: human PlxnB1 ectodomain fragment (residues 1-535) with C-terminal biotin acceptor sequence (domain or fragment)
chain: LQPLPPTAFTPNGTYLQHLARDPTSGTLYLGATNFLFQLSPGLQLEATVSTGPVLDSRDCLPPVMPDECPQAQPTNNPNQLLLVSPGALVVCGSVHQGVCEQRRLGQLEQLLLRPERPGDTQYVAANDPAVSTVGLVAQGLAGEPLLFVGRGYTSRGVGGGIPPITTRALWPPDPQAAFSYEETAKLAVGRLSEYSHHFVSAFARGASAYFLFLRRDLQAQSRAFRAYVSRVCLRDQHYYSYVELPLACEGGRYGLIQAAAVATSREVAHGEVLFAAFSSAAPPTVGRPPSAAAGASGASALCAFPLDEVDRLANRTRDACYTREGRAEDGTEVAYIEYDVNSDCAQLPVDTLDAYPCGSDHTPSPMASRVPLEATPILEWPGIQLTAVAVTMEDGHTIAFLGDSQGQLHRVYLGPGSDGHPYSTQSIQQGSAVSRDLTFDGTFEHLYVMTQSTLLKVPVASCAQHLDCASCLAHRDPYCGWCVLLGRCSRRSECSRGQGPEQWLWSFQPELGCLQ
modifications: biotin on the biotin acceptor sequence (BirA-mediated)
Kd (PB1m6A9 (free peptide)): 0.28 nM | koff (PB1m6A9 (free peptide)): 0.0021 s⁻¹ | Kd (PB1m7 (free peptide)): 275 nM | koff (PB1m7 (free peptide)): 0.01 s⁻¹ | Kd [1]: 0.023 nM | koff [1]: 0.0004 s⁻¹ | Kd [2]: 61.4 nM | koff [2]: 0.055 s⁻¹ | Kd [3]: 3250 nM | koff [3]: 0.051 s⁻¹ | Kd [4]: 45.8 nM | koff [4]: 0.0041 s⁻¹ | Kd [5]: 8.26 nM | koff [5]: 0.0014 s⁻¹

B2: human MET ectodomain fragment (residues 1-931) with C-terminal biotin acceptor sequence (domain or fragment)
chain: ECKEALAKSEMNVNMKYQLPNFTAETPIQNVILHEHHIFLGATNYIYVLNEEDLQKVAEYKTGPVLEHPDCFPCQDCSSKANLSGGVWKDNINMALVVDTYYDDQLISCGSVNRGTCQRHVFPHNHTADIQSEVHCIFSPQIEEPSQCPDCVVSALGAKVLSSVKDRFINFFVGNTINSSYFPDHPLHSISVRRLKETKDGFMFLTDQSYIDVLPEFRDSYPIKYVHAFESNNFIYFLTVQRETLDAQTFHTRIIRFCSINSGLHSYMEMPLECILTEKRKKRSTKKEVFNILQAAYVSKPGAQLARQIGASLNDDILFGVFAQSKPDSAEPMDRSAMCAFPIKYVNDFFNKIVNKNNVRCLQHFYGPNHEHCFNRTLLRNSSGCEARRDEYRTEFTTALQRVDLFMGQFSEVLLTSISTFIKGDLTIANLGTSEGRFMQVVVSRSGPSTPHVNFLLDSHPVSPEVIVEHTLNQNGYTLVITGKKITKIPLNGLGCRHFQSCSQCLSAPPFVQCGWCHDKCVRSEECLSGTWTQQICLPAIYKVFPNSAPLEGGTRLTICGWDFGFRRNNKFDLKKTRVLLGNESCTLTLSESTMNTLKCTVGPAMNKHFNMSIIISNGHGTTQYSTFSYVDPVITSISPKYGPMAGGTLLTLTGNYLNSGNSRHISIGGKTCTLKSVSNSILECYTPAQTISTEFAVKLKIDLANRETSIFSYREDPIVYEIHPTKSFISGGSTITGVGKNLNSVSVPRMVINVHEAGRNFTVACQHRSNSEIICCTTPSLQQLNLQLPLKTKAFFMLDGILSKYFDLIYVHNPVFKPFEKPVMISMGNENVLEIKGNDIDPEAVKGEVLKVGNKSCENIHLHSEAVLCTVPNDLLKLNSELNIEWKQAISSTVLGKVIVQPDQNF
modifications: biotin on the biotin acceptor sequence (BirA-mediated)
Kd [6]: 4.5 nM | koff [6]: 0.0007 s⁻¹ | Kd (aMD5 (free peptide)): 2.3 nM | koff (aMD5 (free peptide)): 0.011 s⁻¹ | Kd (aMD4 (free peptide)): 2.4 nM | koff (aMD4 (free peptide)): 0.003 s⁻¹ | Kd [7]: 91.6 nM | koff [7]: 0.004 s⁻¹ | Kd [8]: 211 nM | koff [8]: 0.019 s⁻¹
